Measured values as given in patent US12377158.
Positions of bridges follow the written chain, without caps; N, C: chain ends. No end group written: not given here.

How the values were obtained:
[1] = target: Native human Albumin Protein (human) (UniProt P02768); assay: SPR (Nicoya OpenSPR), human albumin immobilised on COOH chip, mouse klotho as analyte at 0-40 nM
[2] = target: canine albumins (canine) (UniProt P49822); assay: method not stated
Sequence of UniProt P49822 (P49822 25-608 limits assumed): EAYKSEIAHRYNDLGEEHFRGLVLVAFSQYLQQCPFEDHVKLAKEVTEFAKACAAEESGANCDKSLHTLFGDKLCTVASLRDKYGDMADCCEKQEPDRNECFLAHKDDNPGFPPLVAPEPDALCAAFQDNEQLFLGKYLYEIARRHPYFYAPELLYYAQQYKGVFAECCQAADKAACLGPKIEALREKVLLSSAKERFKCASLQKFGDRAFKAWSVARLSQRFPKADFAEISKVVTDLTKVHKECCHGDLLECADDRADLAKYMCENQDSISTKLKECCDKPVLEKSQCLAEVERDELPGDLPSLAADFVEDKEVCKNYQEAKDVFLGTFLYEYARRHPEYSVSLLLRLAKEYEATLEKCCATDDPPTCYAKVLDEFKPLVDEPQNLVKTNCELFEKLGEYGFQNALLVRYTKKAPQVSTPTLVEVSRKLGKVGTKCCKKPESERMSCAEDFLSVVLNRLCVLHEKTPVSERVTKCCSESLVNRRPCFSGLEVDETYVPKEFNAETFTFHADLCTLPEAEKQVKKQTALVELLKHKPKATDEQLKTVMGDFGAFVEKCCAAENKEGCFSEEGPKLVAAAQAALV

| Kd [1] [nM] | koff [1] [s⁻¹] | kon [1] [M⁻¹ s⁻¹] | Kd [2] [nM] | Molecule |
| --- | --- | --- | --- | --- |
| 7.94 | 0.00681 | 858000 | – | Mouse klotho protein (from UniProt O35082 35-982) |
| – | – | – | < 19 | GGSGGSGGSGGRLIEDICLPRWGCLWEDD (peptide, not shown: small tags and cut ends, disulfide 18-24 (inferred); also: fused to alpha Klotho, terminus not given here) [alpha Klotho with the albumin binding construct … (SEQ ID NO: 4) attached to the terminal end] |
